For three substances, EC50 and Concentration of antibody in ug/ml results are on record in patent publication US6569430.

Assay [1] deals with Campath-1 antigen (partially purified, obtained from a glycolipid extract from human spleen) (human) (UniProt P31358). The assay can be described thus: direct binding ELISA, partially purified Campath-1 antigen coated on wells, detected with biotin anti-rat IgG2b; antibody concentration at 50% maximal binding. (In general: In an ELISA, binding on a coated surface is turned into a signal by an enzyme label.)

For assay [2] the target is unchanged. The assay can be described thus: cell-based or functional assay.

On to “HuVHCAMP(Ser27 to Phe)-RaIgG2B with rat kappa light chain of YTH 34.5HL (antibody)”, for which, in assay [1], the EC50 was determined as 1.8 µg/mL. Also, the Concentration of antibody in ug/ml at 50% lysis (complement lysis of human lymphocytes with human serum) in assay [2] stood at 16.3 µg/mL.
With “HuVHCAMP(Ser27 to Phe, Ser30 to Thr)-RaIgG2B with rat kappa light chain of YTH 34.5HL (antibody)”, in assay [1], the EC50 amounted to 2 µg/mL. The substance also returned a Concentration of antibody in ug/ml at 50% lysis (complement lysis of human lymphocytes with human serum) in assay [2] of 17.6 µg/mL.
In assay [1], “HuVHCAMP-RaIgG2B with rat kappa light chain of YTH 34.5HL (antibody)” had an EC50 of 27.3 µg/mL.

By EC50 is commonly meant the midpoint of the concentration-response curve.
